Experimental data: paper PMC11542179, “Unraveling the Bivalent and Rapid Interactions Between a Multivalent RNA Recognition Motif and RNA: A Kinetic Approach”

Assays:
MSI1 RRM2 [1] = biological target: T1, MSI1 RRM2 (Homo sapiens, UniProt O43347 104-200); experiment: SPR; 1:1 with mass transport; SPR, 3'-biotinylated RNA immobilized on dextran sensor chip, protein as analyte; running buffer, salt, pH and temperature not in the material; conditions: protein: recombinant, tags: C-terminal Strep-tag, label: 3'-biotin
MSI1 RRM1 [2] = biological target: T2, MSI1 RRM1 (Homo sapiens, UniProt O43347 1-103); experiment: as above; conditions: protein: recombinant, tags: N-terminal Strep-tag, label: 3'-biotin
MSI1 RRM1-RRM2 tandem [3] = biological target: T3, MSI1 RRM1-RRM2 tandem (Homo sapiens, UniProt O43347 1-200); experiment: SPR; KD1 monovalent step, new model; SPR, 3'-biotinylated RNA immobilized on dextran sensor chip, protein as analyte; running buffer, salt, pH and temperature not in the material; conditions: protein: recombinant, label: 3'-biotin
MSI1 RRM1-RRM2 tandem [4] = biological target: T3, MSI1 RRM1-RRM2 tandem; experiment: SPR; KD1, bivalent analyte model; SPR, 3'-biotinylated RNA immobilized on dextran sensor chip, protein as analyte; running buffer, salt, pH and temperature not in the material; conditions: protein: recombinant, label: 3'-biotin
MSI1 RRM2 [5] = biological target: T1, MSI1 RRM2; experiment: SPR; 1.9-500 nM; SPR, 3'-biotinylated RNA immobilized on dextran sensor chip, protein as analyte; running buffer, salt, pH and temperature not in the material; conditions: protein: recombinant; tags: C-terminal Strep-tag; label: 3'-biotin
MSI1 RRM1 [6] = biological target: T2, MSI1 RRM1; experiment: as above; conditions: protein: recombinant; tags: N-terminal Strep-tag; label: 3'-biotin
MSI1 RRM1-RRM2 tandem [7] = biological target: T3, MSI1 RRM1-RRM2 tandem; experiment: SPR; 7.8-250 nM; SPR, 3'-biotinylated RNA immobilized on dextran sensor chip, protein as analyte; running buffer, salt, pH and temperature not in the material; conditions: protein: recombinant; label: 3'-biotin
MSI1 RRM1-RRM2 tandem [8] = biological target: T3, MSI1 RRM1-RRM2 tandem; experiment: SPR; KD1, induced fit model; SPR, 3'-biotinylated RNA immobilized on dextran sensor chip, protein as analyte; running buffer, salt, pH and temperature not in the material; conditions: protein: recombinant; label: 3'-biotin; linear, single UAG motif
MSI1 RRM1-RRM2 tandem [9] = biological target: T3, MSI1 RRM1-RRM2 tandem; experiment: SPR; KD1 monovalent step, new rapid 2:1 model; SPR, 3'-biotinylated RNA immobilized on dextran sensor chip, protein as analyte; running buffer, salt, pH and temperature not in the material; conditions: protein: recombinant; label: 3'-biotin; linear, single UAG motif
MSI1 RRM1-RRM2 tandem [10] = biological target: T3, MSI1 RRM1-RRM2 tandem; experiment: SPR; KD1, bivalent analyte model (Table 3 prints 41); SPR, 3'-biotinylated RNA immobilized on dextran sensor chip, protein as analyte; running buffer, salt, pH and temperature not in the material; conditions: protein: recombinant; label: 3'-biotin; linear, single UAG motif
MSI1 RRM1-RRM2 tandem [11] = biological target: T3, MSI1 RRM1-RRM2 tandem; experiment: SPR; 1:1 model (poor fit); SPR, 3'-biotinylated RNA immobilized on dextran sensor chip, protein as analyte; running buffer, salt, pH and temperature not in the material; conditions: protein: recombinant; label: 3'-biotin; linear, single UAG motif

T3 sequence (O43347 1-200): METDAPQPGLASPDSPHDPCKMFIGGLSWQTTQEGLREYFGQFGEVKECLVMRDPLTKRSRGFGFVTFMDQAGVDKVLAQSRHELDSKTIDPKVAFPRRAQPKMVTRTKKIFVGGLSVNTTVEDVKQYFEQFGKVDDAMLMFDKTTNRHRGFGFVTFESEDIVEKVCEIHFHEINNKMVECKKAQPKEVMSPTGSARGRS
T1 sequence (O43347 104-200): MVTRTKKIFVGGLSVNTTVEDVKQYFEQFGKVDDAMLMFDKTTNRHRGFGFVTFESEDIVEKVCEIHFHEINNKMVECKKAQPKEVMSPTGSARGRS
T2 sequence (O43347 1-103): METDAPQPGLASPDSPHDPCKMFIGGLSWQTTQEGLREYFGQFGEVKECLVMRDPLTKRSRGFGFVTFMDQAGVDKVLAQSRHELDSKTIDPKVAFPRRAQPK

## CACUCUGUAGUAUGUAGGGUUUAUUU (structured_RNA) [RNA-HP2b]
MSI1 RRM2 [1]; potential hairpin
  Kd: 26 nM
MSI1 RRM1 [2]; potential hairpin
  Kd: 33 nM
MSI1 RRM1-RRM2 tandem [3]; potential hairpin
  Kd: 49 nM
MSI1 RRM1-RRM2 tandem [4]; potential hairpin
  Kd: 144 nM

## CGGCGCCGC (ssRNA) [RNA C]
MSI1 RRM2 [5]
  binding result: no binding
MSI1 RRM1 [6]
  binding result: no binding
MSI1 RRM1-RRM2 tandem [7]
  binding result: no binding

## UUGUUAGUUACCCCUU (ssRNA) [RNA-L1]
MSI1 RRM2 [1]; linear, single UAG motif
  Kd: 25 nM
MSI1 RRM1 [2]; linear, single UAG motif
  Kd: 47 nM
MSI1 RRM1-RRM2 tandem [8]
  Kd: 24 nM
MSI1 RRM1-RRM2 tandem [9]
  Kd: 58 nM
MSI1 RRM1-RRM2 tandem [10]
  Kd: 42 nM
MSI1 RRM1-RRM2 tandem [11]
  Kd: 2 nM

## AAGCGUUAGUUAUUUAGUCGCUU (structured_RNA) [RNA-HP2a]
MSI1 RRM2 [1]; potential hairpin
  Kd: 37 nM
MSI1 RRM1 [2]; potential hairpin
  Kd: 22 nM
MSI1 RRM1-RRM2 tandem [3]; potential hairpin
  Kd: 77 nM
MSI1 RRM1-RRM2 tandem [4]; potential hairpin
  Kd: 45 nM

## UUGUCAGUUACCCCUU (ssRNA) [RNA-L1a]
MSI1 RRM2 [1]; linear
  Kd: 123 nM
MSI1 RRM1 [2]; linear
  Kd: 151 nM
MSI1 RRM1-RRM2 tandem [3]; linear
  Kd: 1170 nM
MSI1 RRM1-RRM2 tandem [4]; linear
  Kd: 1410 nM
